The target in experiment [1] is T1, full-length human tau (human, UniProt P10636 2-757).
T1 construct: also called tau441; human tau isoform 2
The experiment in a line: SPR (Biacore S200), single-cycle, biotinylated antibody captured on streptavidin chip, tau as analyte, steady state affinity fit; IgG1 format. The procedure:
(§1) (C) Single-cycle kinetics of AB1 to full-length human tau was determined using surface plasmon resonance. […] (D) The molecular weight (MW), binding affinity (KD) and activity for each of the AB1 antibody formats.
(§2) Surface plasmon resonance measurements were conducted at the Monash Fragment Platform, Monash University, using the Biacore S200 biosensor (GE Healthcare). Biotinylated AB1 was captured on a streptavidin-coated CM5 chip. For biotinylation, AB1 IgG1 (29.5 μM), AB1 IgG2a (32.0 μM), AB1 Fab (22.9 μM) and AB1 scFv (60.4 μM) (in 137 mM NaCl, 2.7 mM KCl, 10 mM Na2HPO4, 1.8 mM KH2PO4) was added in a 1:1 ratio with EZ-link NHS-LC-LC-biotin (Thermo Scientific) and incubated at 25° C. for 1 hr. Antibodies were separated from free-unconjugated biotin using size-exclusion chromatography on a Superdex 200 10/300 GL (GE Healthcare) or Superdex 75 10/300 Increase (GE Healthcare) equilibrated in 137 mM NaCl, 2.7 mM KCl, 12 mM Na2HPO4, 1.8 mM KH2PO4, pH 7.4. Streptavidin was immobilized on the CM5 chip using amine coupling at 37° C. […]
On the technique in general: In SPR one partner is held on a chip, and binding of the other changes the refractive index at the surface.

The target of experiment [2] is T1, full-length human tau. The experiment in a line: SPR (Biacore S200), single-cycle, biotinylated Fab captured on streptavidin chip, tau as analyte, steady state affinity fit; Fab, not IgG. The procedure:
as §1, §2

Experiment [3] has as its target T1, full-length human tau. The experiment in a line: SPR (Biacore S200), single-cycle, biotinylated antibody captured on streptavidin chip, tau as analyte, steady state affinity fit; IgG2a format. As to the method: as §1, §2

T1 sequence (P10636 other isoform, or with tags, fused parts or gaps limits assumed): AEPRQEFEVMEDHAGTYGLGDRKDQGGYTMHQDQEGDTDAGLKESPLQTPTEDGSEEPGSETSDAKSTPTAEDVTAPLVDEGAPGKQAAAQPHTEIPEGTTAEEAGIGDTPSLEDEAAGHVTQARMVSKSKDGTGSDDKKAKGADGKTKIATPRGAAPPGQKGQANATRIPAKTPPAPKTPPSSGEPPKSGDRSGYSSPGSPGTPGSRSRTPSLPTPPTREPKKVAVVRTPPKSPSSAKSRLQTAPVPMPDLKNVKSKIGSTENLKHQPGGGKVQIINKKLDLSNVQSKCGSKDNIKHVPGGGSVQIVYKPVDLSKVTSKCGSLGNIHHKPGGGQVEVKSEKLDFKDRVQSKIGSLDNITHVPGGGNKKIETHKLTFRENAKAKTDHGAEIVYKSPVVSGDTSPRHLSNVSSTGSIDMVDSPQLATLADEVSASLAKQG

B1: AB1 IgG1 (antibody, V domains shown)
VH: QVQLKQSGPGLVQPSQSLSITCTVSGFSLTSYGVHWVRQSPGKGLEWLGVIWRGGSTDYNAAFMSRLSITKDNSKSQVFFKMNSLQADDTAIYYCAKNTNHRYDGYYAMDYWGQGTSVTVS
VL: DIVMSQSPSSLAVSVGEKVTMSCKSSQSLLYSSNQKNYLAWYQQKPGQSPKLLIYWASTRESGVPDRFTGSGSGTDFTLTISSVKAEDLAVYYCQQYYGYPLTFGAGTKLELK
notes: Expressed in Expi-CHO, about 156 kDa; For SPR it was biotinylated with NHS-LC-LC-biotin and captured on streptavidin; also called full-sized murine IgG1
One may read the Kd as the concentration at which binding is half-saturated. Read a low Kd as higher affinity. With B1, the Kd with full-length human tau [1] stood at 407 nM.

B2: AB1 Fab (Fab, V domains shown)
VH: B1 VH
VL: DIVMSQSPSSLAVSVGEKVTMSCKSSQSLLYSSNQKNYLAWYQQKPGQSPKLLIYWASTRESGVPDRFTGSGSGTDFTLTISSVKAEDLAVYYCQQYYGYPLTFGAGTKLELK
notes: Biotinylated and captured on streptavidin for SPR
Molecule B2 gave a Kd with full-length human tau [2] of 298 nM.

B3: AB1 IgG2a (antibody, V domains shown)
VH: B1 VH
VL: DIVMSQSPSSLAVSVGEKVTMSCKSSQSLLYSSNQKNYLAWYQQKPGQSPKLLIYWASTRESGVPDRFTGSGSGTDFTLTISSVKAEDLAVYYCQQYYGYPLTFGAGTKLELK
notes: About 156 kDa; Biotinylated and captured on streptavidin for SPR; also called full-sized murine IgG2a
Regarding B3, in the experiment with full-length human tau [3], the Kd is 381 nM.

The values above are taken from patent publication US20210347869A1 (UNIVERSITY OF QUEENSLAND, published 2021).
